According to publication PMC4445001 (Molecular Therapy. Methods & Clinical Development, 2015):

B1: HAdV3 fiber knob mutant V239D (nondimerized, trimeric) (domain or fragment, human adenovirus type 3 (HAdV3))
chain: ALKNNTLWTGPKPEANCIIEYGKQNPDSKLTLILVKNGGIVNGYVTLMGASDYVNTLFKNKNVSINVELYFDATGHILPDSSSLKTDLELKYKQTADFSARGFMPSTTAYPFDLPNAGTHNENYIFGQCYYKASDGALFPLEVTVMLNKRLPDSRTSYVMTFLWSLNAGLAPETTQATLITSPFTFSYIREDD

Experiments:
[1] = target: JO-4 (affinity-enhanced junction opener; self-dimerizing HAdV3-V239D fiber knob) (human adenovirus type 3 (HAdV3)) (UniProt P04501); assay: SPR
crystal structure = target: the molecule itself; assay: crystal structure

Row | Molecule | Kd [1] [nM] | binding result (crystal structure)
1 | Recombinant human DSG2 protein (desmoglein 2) (from UniProt Q14126 50-609) (receptor) | 1.4 | 
2 | B1 |  | binds
